Assay results published in patent US20200262877A1, “ION CHANNEL-BINDING PEPTIDES AND METHODS OF USE THEREOF” (priority 2017, published 2020).

Columns and labels:
α4β2 = target: T1, α4β2 (Homo sapiens, UniProt P17787+P43681); test: Ion channel panel (IonWorks Barracuda): α4β2; assay type: cell-based; conditions: 100% = no change, <100% = inhibition
T1 construct: host or cells: HEK293 or CHO
How it was run: (§1)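 Peptides were tested in duplicate at final 20 μM and 200 nM, with concentration set by amino acid analysis, in HEPES-buffered saline. They were applied for at least 5 min to HEK293 or CHO cells transfected with each channel. Currents were expressed as % inhibition, 1-(Ipeptide/Icontrol)×100, or % activation, Ipeptide/Icontrol×100, against a channel-matched reference compound.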

5HT3a = target: T2, 5HT3a (Homo sapiens, UniProt P46098); test: Ion channel panel (IonWorks Barracuda): 5HT3a; assay type: cell-based
T2 construct: host or cells: HEK293 or CHO
T2 sequence (P46098 whole entry, looked up): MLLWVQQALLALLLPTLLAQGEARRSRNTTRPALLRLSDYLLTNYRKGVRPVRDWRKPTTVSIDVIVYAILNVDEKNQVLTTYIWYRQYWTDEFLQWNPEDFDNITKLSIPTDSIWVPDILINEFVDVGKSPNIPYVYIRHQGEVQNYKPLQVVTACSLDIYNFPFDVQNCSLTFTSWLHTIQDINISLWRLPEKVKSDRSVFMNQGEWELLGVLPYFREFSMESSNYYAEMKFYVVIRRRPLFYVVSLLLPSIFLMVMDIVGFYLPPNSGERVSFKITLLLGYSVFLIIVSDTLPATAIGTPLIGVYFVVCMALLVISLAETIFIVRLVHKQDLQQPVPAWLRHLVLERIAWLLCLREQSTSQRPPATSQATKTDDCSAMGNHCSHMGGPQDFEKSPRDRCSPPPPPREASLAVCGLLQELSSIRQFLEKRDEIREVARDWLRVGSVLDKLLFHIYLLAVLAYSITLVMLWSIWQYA
How it was run: as §1

GABA = test: Ion channel panel (IonWorks Barracuda): GABA; assay type: cell-based; conditions: 100% = no change, <100% = inhibition
How it was run: as §1

Nav1.7 = target: T3, Nav1.7 (Homo sapiens, UniProt Q15858); test: cell-based; assay type: cell-based; conditions: 100% = no change; for Activity of Nav1.7 with peptide, expressed as a percentage of the reference compound: peptide at 0.2 μM; for Activity of Nav1.7 with peptide (percentage of the reference compound): peptide at 20 μM
T3 construct: host or cells: HEK293 or CHO

hERG = hERG (Homo sapiens, UniProt Q12809); test: in vitro; conditions: 100% = no change, <100% = inhibition
How it was run: as §1

Nav1.5 = Nav1.5 (Homo sapiens, UniProt Q14524); test: in vitro; conditions: 100% = no change; for Activity of Nav1.5 with peptide, expressed as a percentage of the reference compound: peptide at 0.2 μM; for Activity of Nav1.5 with peptide (percentage of the reference compound): peptide at 20 μM
How it was run: as §1

Kv1.1 = target: T4, Kv1.1 (Homo sapiens, UniProt Q09470); test: cell-based; assay type: cell-based; conditions: 100% = no change, <100% = inhibition
T4 construct: host or cells: HEK293 or CHO
How it was run: as §1

Kv1.3 = target: T5, Kv1.3 (Homo sapiens, UniProt P22001); test: cell-based; assay type: cell-based; conditions: 100% = no change, <100% = inhibition
T5 construct: host or cells: HEK293 or CHO
How it was run: as §1

Kv1.2 = target: T6, Kv1.2 (Homo sapiens, UniProt P16389); test: cell-based; assay type: cell-based; conditions: 100% = no change, <100% = inhibition
T6 construct: host or cells: HEK293 or CHO
How it was run: as §1

α3β4 = target: T7, α3β4 (Homo sapiens, UniProt P30926+P32297); test: Ion channel panel (IonWorks Barracuda): α3β4; assay type: cell-based; conditions: 100% = no change, <100% = inhibition
T7 construct: host or cells: HEK293 or CHO
How it was run: as §1

TRPV1 = target: T8, TRPV1 (Homo sapiens, UniProt Q8NER1); test: Ion channel panel (IonWorks Barracuda): TRPV1; assay type: cell-based; conditions: 100% = no change, <100% = inhibition
T8 construct: host or cells: HEK293 or CHO
How it was run: as §1

TRPA1 = target: T9, TRPA1 (Homo sapiens, UniProt O75762); test: Ion channel panel (IonWorks Barracuda): TRPA1; assay type: cell-based; conditions: 100% = no change, <100% = inhibition
T9 construct: host or cells: HEK293 or CHO
How it was run: as §1

Cav2.2 = target: T10, Cav2.2 (Homo sapiens, UniProt Q00975); test: cell-based; conditions: 100% = no change, <100% = inhibition
T10 construct: host or cells: HEK293 or CHO
How it was run: as §1

Kv2.1 = target: T11, Kv2.1 (Homo sapiens, UniProt Q14721); test: cell-based; conditions: 100% = no change, <100% = inhibition
T11 construct: host or cells: HEK293 or CHO
How it was run: as §1

Cav2.1 = target: T12, Cav2.1 (Homo sapiens, UniProt O00555); test: cell-based; conditions: 100% = no change, <100% = inhibition
T12 construct: host or cells: HEK293 or CHO
How it was run: as §1

NR2B = target: T13, NR2B (Homo sapiens, UniProt Q13224); test: Ion channel panel (IonWorks Barracuda): NR2B; assay type: cell-based; conditions: 100% = no change, <100% = inhibition
T13 construct: host or cells: HEK293 or CHO
How it was run: as §1

Kir2.1 = target: T14, Kir2.1 (Homo sapiens, UniProt P63252); test: Ion channel panel (IonWorks Barracuda): Kir2.1; assay type: cell-based; conditions: 100% = no change, <100% = inhibition
T14 construct: host or cells: HEK293 or CHO
How it was run: as §1

NR2A = target: T15, NR2A (Homo sapiens, UniProt Q12879); test: Ion channel panel (IonWorks Barracuda): NR2A; assay type: cell-based; conditions: 100% = no change, <100% = inhibition
T15 construct: host or cells: HEK293 or CHO
How it was run: as §1

[1] = first of two Nav1.7 columns (probably TP1)
[2] = second of two Nav1.7 columns (probably TP2)
[3] = first of two Nav1.5 columns (probably TP1)
[4] = second of two Nav1.5 columns (probably TP2)

Sequence of Nav1.5 (Q14524 whole entry): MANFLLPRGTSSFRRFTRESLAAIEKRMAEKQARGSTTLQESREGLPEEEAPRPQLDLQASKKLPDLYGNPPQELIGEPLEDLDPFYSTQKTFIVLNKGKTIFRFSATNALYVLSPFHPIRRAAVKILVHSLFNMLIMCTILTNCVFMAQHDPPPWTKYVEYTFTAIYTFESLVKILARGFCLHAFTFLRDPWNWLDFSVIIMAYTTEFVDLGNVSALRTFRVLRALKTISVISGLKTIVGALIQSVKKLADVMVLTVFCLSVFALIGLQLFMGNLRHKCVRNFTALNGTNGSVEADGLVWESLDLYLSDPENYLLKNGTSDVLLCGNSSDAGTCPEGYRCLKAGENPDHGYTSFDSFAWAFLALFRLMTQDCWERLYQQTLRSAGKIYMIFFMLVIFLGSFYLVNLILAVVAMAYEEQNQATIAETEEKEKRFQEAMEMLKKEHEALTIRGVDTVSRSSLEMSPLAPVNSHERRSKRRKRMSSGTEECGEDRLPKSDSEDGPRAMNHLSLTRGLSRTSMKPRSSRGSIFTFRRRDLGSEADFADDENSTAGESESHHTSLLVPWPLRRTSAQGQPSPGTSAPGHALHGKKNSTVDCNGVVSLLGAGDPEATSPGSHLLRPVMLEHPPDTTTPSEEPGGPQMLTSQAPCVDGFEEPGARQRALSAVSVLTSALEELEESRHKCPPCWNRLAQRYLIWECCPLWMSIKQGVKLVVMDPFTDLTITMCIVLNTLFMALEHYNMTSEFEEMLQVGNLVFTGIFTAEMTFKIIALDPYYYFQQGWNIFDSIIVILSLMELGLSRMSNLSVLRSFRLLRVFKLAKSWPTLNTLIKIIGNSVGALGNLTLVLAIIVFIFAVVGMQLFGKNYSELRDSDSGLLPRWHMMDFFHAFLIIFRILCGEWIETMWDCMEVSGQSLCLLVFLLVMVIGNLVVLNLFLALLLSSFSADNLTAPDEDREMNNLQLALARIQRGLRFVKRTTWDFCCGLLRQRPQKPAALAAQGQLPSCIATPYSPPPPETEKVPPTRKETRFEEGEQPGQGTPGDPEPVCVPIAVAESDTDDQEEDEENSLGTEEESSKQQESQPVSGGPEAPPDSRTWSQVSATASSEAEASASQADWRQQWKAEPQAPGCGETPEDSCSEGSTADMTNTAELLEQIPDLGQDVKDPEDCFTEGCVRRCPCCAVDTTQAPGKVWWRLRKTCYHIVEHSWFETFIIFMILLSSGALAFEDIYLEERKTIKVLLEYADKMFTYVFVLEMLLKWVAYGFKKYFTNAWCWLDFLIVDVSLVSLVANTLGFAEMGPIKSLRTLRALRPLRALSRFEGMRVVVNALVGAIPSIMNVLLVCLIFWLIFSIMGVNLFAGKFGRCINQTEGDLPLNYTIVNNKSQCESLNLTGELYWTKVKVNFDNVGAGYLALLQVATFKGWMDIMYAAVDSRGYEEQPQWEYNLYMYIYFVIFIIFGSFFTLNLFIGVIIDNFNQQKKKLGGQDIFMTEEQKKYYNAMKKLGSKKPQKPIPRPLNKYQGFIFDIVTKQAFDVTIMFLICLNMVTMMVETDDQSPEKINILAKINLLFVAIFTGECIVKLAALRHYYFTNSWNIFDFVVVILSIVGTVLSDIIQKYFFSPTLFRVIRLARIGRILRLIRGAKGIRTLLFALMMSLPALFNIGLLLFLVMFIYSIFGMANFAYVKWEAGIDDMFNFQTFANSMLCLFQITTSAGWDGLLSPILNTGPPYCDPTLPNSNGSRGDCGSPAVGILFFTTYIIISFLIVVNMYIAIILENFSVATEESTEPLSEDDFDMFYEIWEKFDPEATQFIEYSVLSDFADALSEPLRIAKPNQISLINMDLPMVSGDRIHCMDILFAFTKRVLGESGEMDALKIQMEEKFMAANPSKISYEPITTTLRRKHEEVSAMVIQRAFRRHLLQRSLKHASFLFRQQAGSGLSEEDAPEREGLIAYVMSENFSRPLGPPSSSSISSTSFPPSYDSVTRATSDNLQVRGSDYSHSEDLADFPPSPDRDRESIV
T3 sequence (Q15858 whole entry): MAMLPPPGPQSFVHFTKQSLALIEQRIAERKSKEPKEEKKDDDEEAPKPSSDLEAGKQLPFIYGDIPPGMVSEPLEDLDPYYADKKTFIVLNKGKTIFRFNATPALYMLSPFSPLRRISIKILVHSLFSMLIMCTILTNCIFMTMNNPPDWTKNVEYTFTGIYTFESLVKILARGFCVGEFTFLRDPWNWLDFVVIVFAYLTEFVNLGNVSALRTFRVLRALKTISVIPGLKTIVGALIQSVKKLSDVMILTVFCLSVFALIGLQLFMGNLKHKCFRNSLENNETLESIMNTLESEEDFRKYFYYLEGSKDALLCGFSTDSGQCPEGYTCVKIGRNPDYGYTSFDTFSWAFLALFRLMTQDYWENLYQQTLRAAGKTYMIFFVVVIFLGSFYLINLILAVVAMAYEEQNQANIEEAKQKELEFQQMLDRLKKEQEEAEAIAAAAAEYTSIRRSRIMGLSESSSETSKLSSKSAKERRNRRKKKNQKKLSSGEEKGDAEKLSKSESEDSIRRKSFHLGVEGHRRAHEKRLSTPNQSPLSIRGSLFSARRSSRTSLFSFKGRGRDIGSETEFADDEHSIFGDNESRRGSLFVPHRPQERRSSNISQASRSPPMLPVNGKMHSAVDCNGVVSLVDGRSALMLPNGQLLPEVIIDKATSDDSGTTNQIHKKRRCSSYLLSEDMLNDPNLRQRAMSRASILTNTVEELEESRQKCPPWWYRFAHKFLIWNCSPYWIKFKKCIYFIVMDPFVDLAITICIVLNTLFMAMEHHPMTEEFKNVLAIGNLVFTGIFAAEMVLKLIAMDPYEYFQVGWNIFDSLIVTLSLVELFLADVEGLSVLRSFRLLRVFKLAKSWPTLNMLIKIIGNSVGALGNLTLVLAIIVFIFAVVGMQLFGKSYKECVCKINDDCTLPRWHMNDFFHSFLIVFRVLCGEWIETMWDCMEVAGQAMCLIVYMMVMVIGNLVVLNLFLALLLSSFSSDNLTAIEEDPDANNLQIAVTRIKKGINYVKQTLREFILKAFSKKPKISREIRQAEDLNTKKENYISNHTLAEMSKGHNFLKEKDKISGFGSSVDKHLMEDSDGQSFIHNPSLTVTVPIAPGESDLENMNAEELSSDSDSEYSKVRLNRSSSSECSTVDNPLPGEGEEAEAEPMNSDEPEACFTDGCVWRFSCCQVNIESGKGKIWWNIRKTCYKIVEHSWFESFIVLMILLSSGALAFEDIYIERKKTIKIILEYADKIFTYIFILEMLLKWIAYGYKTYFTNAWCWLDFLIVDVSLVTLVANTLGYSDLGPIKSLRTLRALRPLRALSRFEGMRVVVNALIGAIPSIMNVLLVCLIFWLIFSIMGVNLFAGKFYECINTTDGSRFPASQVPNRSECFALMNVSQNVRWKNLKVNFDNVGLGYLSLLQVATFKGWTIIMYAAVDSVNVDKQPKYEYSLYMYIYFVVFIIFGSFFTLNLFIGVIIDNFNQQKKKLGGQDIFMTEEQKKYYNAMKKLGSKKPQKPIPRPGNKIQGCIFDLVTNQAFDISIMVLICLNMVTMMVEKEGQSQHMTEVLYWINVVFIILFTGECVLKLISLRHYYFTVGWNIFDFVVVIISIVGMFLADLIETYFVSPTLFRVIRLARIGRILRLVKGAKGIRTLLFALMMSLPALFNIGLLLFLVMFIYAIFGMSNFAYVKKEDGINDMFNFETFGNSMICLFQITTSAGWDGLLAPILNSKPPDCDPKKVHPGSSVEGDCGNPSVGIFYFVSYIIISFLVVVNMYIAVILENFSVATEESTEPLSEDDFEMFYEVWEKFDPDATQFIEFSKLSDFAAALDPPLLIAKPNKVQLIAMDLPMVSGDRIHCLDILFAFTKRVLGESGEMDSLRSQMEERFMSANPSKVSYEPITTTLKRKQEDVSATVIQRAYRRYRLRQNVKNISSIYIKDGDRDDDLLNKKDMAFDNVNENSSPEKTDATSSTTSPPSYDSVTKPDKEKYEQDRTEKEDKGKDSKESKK
T7 sequence (P30926 22-498): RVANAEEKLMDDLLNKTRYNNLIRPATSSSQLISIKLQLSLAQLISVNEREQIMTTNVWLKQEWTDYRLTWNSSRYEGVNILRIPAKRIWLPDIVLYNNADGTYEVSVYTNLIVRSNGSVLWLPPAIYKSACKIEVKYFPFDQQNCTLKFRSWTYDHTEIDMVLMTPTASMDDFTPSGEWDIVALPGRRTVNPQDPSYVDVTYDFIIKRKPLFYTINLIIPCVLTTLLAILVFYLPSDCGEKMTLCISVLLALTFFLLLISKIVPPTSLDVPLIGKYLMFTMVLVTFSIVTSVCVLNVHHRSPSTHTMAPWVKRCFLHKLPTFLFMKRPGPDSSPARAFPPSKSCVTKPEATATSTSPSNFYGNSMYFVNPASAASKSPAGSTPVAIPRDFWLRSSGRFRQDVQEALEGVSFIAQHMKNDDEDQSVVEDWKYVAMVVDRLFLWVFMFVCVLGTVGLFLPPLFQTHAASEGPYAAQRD
T7 sequence (P32297 32-505): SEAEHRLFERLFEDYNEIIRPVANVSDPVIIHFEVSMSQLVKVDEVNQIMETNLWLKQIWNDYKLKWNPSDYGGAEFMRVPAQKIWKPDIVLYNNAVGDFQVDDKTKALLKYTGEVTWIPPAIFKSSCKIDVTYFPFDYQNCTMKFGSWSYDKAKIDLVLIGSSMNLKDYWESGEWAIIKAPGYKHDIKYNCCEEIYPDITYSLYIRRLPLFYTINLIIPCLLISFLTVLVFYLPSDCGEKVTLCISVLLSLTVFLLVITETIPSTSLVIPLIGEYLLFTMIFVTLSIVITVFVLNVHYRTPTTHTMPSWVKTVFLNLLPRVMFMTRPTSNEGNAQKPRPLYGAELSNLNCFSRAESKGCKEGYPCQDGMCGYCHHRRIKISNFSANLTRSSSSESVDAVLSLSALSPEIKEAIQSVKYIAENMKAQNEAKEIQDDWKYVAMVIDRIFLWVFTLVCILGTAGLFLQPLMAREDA

For “16 (GSQFCGTNGKPCVNGQCCGALRCVVTYHYADGVCLKMNP) [compound 16]”, the “Activity of a4b2 with peptide, expressed as a percentage of the reference compound” value (α4β2; peptide at 0.2 μM) was 83%, the “Activity of a4b2 with peptide (percentage of the reference compound)” value (α4β2; peptide at 20 μM) was 72% and the “Activity of 5HT3a with peptide (percentage of the reference compound)” value (5HT3a) was 103%. For the same substance, the “Activity of 5HT3a with peptide, expressed as a percentage of the reference compound” value (5HT3a) was 114%, the “Activity of GABA with peptide, expressed as a percentage of the reference compound” value (GABA; peptide at 0.2 μM) was 102% and the “Activity of GABA with peptide (percentage of the reference compound)” value (GABA; peptide at 20 μM) was 109%. The “Activity of Nav1.7 with peptide, expressed as a percentage of the reference compound” value (Nav1.7; [1]) was 86%, the “Activity of Nav1.7 with peptide, expressed as a percentage of the reference compound” value (Nav1.7; [2]) was 91% and the “Activity of Nav1.7 with peptide (percentage of the reference compound)” value (Nav1.7; [1]) was 66%. For the same substance, the “Activity of Nav1.7 with peptide (percentage of the reference compound)” value (Nav1.7; [2]) was 43%, the “Activity of hERG with peptide, expressed as a percentage of the reference compound” value (hERG; peptide at 0.2 μM) was 74% and the “Activity of hERG with peptide (percentage of the reference compound)” value (hERG; peptide at 20 μM) was 71%. The “Activity of Nav1.5 with peptide, expressed as a percentage of the reference compound” value (Nav1.5; [3]) was 107%, the “Activity of Nav1.5 with peptide, expressed as a percentage of the reference compound” value (Nav1.5; [4]) was 104% and the “Activity of Nav1.5 with peptide (percentage of the reference compound)” value (Nav1.5; [3]) was 93%. The “Activity of Nav1.5 with peptide (percentage of the reference compound)” value (Nav1.5; [4]) was 93%, the “Activity of Kv1.1 with peptide, expressed as a percentage of the reference compound” value (Kv1.1; peptide at 0.2 μM) was 84% and the “Activity of Kv1.1 with peptide (percentage of the reference compound)” value (Kv1.1; peptide at 20 μM) was 67%. The “Activity of Kv1.3 with peptide, expressed as a percentage of the reference compound” value (Kv1.3; peptide at 0.2 μM) was 92%, the “Activity of Kv1.3 with peptide (percentage of the reference compound)” value (Kv1.3; peptide at 20 μM) was 92% and the “Activity of Kv1.2 with peptide, expressed as a percentage of the reference compound” value (Kv1.2; peptide at 0.2 μM) was 78%. The “Activity of Kv1.2 with peptide (percentage of the reference compound)” value (Kv1.2; peptide at 20 μM) was 61%, the “Activity of a3b4 with peptide, expressed as a percentage of the reference compound” value (α3β4; peptide at 0.2 μM) was 100% and the “Activity of a3b4 with peptide (percentage of the reference compound)” value (α3β4; peptide at 20 μM) was 95%. For the same substance, the “Activity of TRPV1 with peptide, expressed as a percentage of the reference compound” value (TRPV1; peptide at 0.2 μM) was 107%, the “Activity of TRPV1 with peptide (percentage of the reference compound)” value (TRPV1; peptide at 20 μM) was 88% and the “Activity of TRPA1 with peptide, expressed as a percentage of the reference compound” value (TRPA1; peptide at 0.2 μM) was 99%. The “Activity of TRPA1 with peptide (percentage of the reference compound)” value (TRPA1; peptide at 20 μM) was 116%, the “Activity of Cav2.2 with peptide, expressed as a percentage of the reference compound” value (Cav2.2; peptide at 0.2 μM) was 124% and the “Activity of Cav2.2 with peptide (percentage of the reference compound)” value (Cav2.2; peptide at 20 μM) was 104%. For the same substance, the “Activity of Kv2.1 with peptide, expressed as a percentage of the reference compound” value (Kv2.1; peptide at 0.2 μM) was 114%, the “Activity of Kv2.1 with peptide (percentage of the reference compound)” value (Kv2.1; peptide at 20 μM) was 98% and the “Activity of Cav2.1 with peptide, expressed as a percentage of the reference compound” value (Cav2.1; peptide at 0.2 μM) was 113%. The “Activity of Cav2.1 with peptide (percentage of the reference compound)” value (Cav2.1; peptide at 20 μM) was 92%, the “Activity of NR2B with peptide, expressed as a percentage of the reference compound” value (NR2B; peptide at 0.2 μM) was 88% and the “Activity of NR2B with peptide (percentage of the reference compound)” value (NR2B; peptide at 20 μM) was 91%. For the same substance, the “Activity of Kir2.1 with peptide, expressed as a percentage of the reference compound” value (Kir2.1; peptide at 0.2 μM) was 98%, the “Activity of Kir2.1 with peptide (percentage of the reference compound)” value (Kir2.1; peptide at 20 μM) was 92% and the “Activity of NR2A with peptide, expressed as a percentage of the reference compound” value (NR2A; peptide at 0.2 μM) was 101%. The “Activity of NR2A with peptide (percentage of the reference compound)” value (NR2A; peptide at 20 μM) was 95%.
